# Results as given in patent US20210388087A1 (Chugai, published 2021).
# T1: Human CD3eg linker (human)
# T1 construct: Single chain: epsilon and gamma subunits of human CD3 joined by a 29-mer linker, Flag-tag at the C-terminus; also called recombinant human CD3
# T1 chain: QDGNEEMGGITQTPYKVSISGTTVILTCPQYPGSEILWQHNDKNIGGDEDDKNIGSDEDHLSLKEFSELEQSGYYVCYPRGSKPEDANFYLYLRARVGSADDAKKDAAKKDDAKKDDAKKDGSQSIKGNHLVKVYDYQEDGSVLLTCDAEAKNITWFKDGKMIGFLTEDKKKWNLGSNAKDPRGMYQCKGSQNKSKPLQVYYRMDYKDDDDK
# Target: T1, Human CD3eg linker
# Test: Biacore SPR, vs template H183/L072
row,Binder,fold change of affinity
1,"H183/L072 VH V100cM (antibody, name in Kabat numbering, V domains shown) VH: QVQLVESGGGLVQPGRSLRLSCAASGFTFSNAWMHWVRQAPGKGLEWVAQIKDKGNAYAAYYAPSVKGRFTISRDDSKNSIYLQMNSLKTEDTAVYYCHYVHYASASTMLPAFGVDAWGQGTTVTVSS VL: DIVMTQSPLSLPVTPGEPASISCQASQELVHMNRNTYLHWYQQKPGQAPRLLIYKVSNRFPGVPDRFSGSGSGTDFTLKISRVEAEDVGVYYCAQGTSVPFTFGQGTKLEIK",1.2 fold
2,"H183/L072 VH W33M (antibody, name in Kabat numbering, V domains shown) VH: QVQLVESGGGLVQPGRSLRLSCAASGFTFSNAMMHWVRQAPGKGLEWVAQIKDKGNAYAAYYAPSVKGRFTISRDDSKNSIYLQMNSLKTEDTAVYYCHYVHYASASTVLPAFGVDAWGQGTTVTVSS VL: DIVMTQSPLSLPVTPGEPASISCQASQELVHMNRNTYLHWYQQKPGQAPRLLIYKVSNRFPGVPDRFSGSGSGTDFTLKISRVEAEDVGVYYCAQGTSVPFTFGQGTKLEIK",0 fold
3,"H183/L072 VH W33L (antibody, name in Kabat numbering, V domains shown) VH: QVQLVESGGGLVQPGRSLRLSCAASGFTFSNALMHWVRQAPGKGLEWVAQIKDKGNAYAAYYAPSVKGRFTISRDDSKNSIYLQMNSLKTEDTAVYYCHYVHYASASTVLPAFGVDAWGQGTTVTVSS VL: DIVMTQSPLSLPVTPGEPASISCQASQELVHMNRNTYLHWYQQKPGQAPRLLIYKVSNRFPGVPDRFSGSGSGTDFTLKISRVEAEDVGVYYCAQGTSVPFTFGQGTKLEIK",0 fold
4,"H183/L072 VH W33N (antibody, name in Kabat numbering, V domains shown) VH: QVQLVESGGGLVQPGRSLRLSCAASGFTFSNANMHWVRQAPGKGLEWVAQIKDKGNAYAAYYAPSVKGRFTISRDDSKNSIYLQMNSLKTEDTAVYYCHYVHYASASTVLPAFGVDAWGQGTTVTVSS VL: DIVMTQSPLSLPVTPGEPASISCQASQELVHMNRNTYLHWYQQKPGQAPRLLIYKVSNRFPGVPDRFSGSGSGTDFTLKISRVEAEDVGVYYCAQGTSVPFTFGQGTKLEIK",0 fold
5,"H183/L072 VH W33F (antibody, name in Kabat numbering, V domains shown) VH: QVQLVESGGGLVQPGRSLRLSCAASGFTFSNAFMHWVRQAPGKGLEWVAQIKDKGNAYAAYYAPSVKGRFTISRDDSKNSIYLQMNSLKTEDTAVYYCHYVHYASASTVLPAFGVDAWGQGTTVTVSS VL: DIVMTQSPLSLPVTPGEPASISCQASQELVHMNRNTYLHWYQQKPGQAPRLLIYKVSNRFPGVPDRFSGSGSGTDFTLKISRVEAEDVGVYYCAQGTSVPFTFGQGTKLEIK",0.4 fold
6,"H183/L072 VH W33E (antibody, name in Kabat numbering, V domains shown) VH: QVQLVESGGGLVQPGRSLRLSCAASGFTFSNAEMHWVRQAPGKGLEWVAQIKDKGNAYAAYYAPSVKGRFTISRDDSKNSIYLQMNSLKTEDTAVYYCHYVHYASASTVLPAFGVDAWGQGTTVTVSS VL: DIVMTQSPLSLPVTPGEPASISCQASQELVHMNRNTYLHWYQQKPGQAPRLLIYKVSNRFPGVPDRFSGSGSGTDFTLKISRVEAEDVGVYYCAQGTSVPFTFGQGTKLEIK",0 fold
7,"H183/L072 VH W33D (antibody, name in Kabat numbering, V domains shown) VH: QVQLVESGGGLVQPGRSLRLSCAASGFTFSNADMHWVRQAPGKGLEWVAQIKDKGNAYAAYYAPSVKGRFTISRDDSKNSIYLQMNSLKTEDTAVYYCHYVHYASASTVLPAFGVDAWGQGTTVTVSS VL: DIVMTQSPLSLPVTPGEPASISCQASQELVHMNRNTYLHWYQQKPGQAPRLLIYKVSNRFPGVPDRFSGSGSGTDFTLKISRVEAEDVGVYYCAQGTSVPFTFGQGTKLEIK",0 fold
8,"H183/L072 VH V100iP (antibody, name in Kabat numbering, V domains shown) VH: QVQLVESGGGLVQPGRSLRLSCAASGFTFSNAWMHWVRQAPGKGLEWVAQIKDKGNAYAAYYAPSVKGRFTISRDDSKNSIYLQMNSLKTEDTAVYYCHYVHYASASTVLPAFGPDAWGQGTTVTVSS VL: DIVMTQSPLSLPVTPGEPASISCQASQELVHMNRNTYLHWYQQKPGQAPRLLIYKVSNRFPGVPDRFSGSGSGTDFTLKISRVEAEDVGVYYCAQGTSVPFTFGQGTKLEIK",1.2 fold
9,"H183/L072 VH W33K (antibody, name in Kabat numbering, V domains shown) VH: QVQLVESGGGLVQPGRSLRLSCAASGFTFSNAKMHWVRQAPGKGLEWVAQIKDKGNAYAAYYAPSVKGRFTISRDDSKNSIYLQMNSLKTEDTAVYYCHYVHYASASTVLPAFGVDAWGQGTTVTVSS VL: DIVMTQSPLSLPVTPGEPASISCQASQELVHMNRNTYLHWYQQKPGQAPRLLIYKVSNRFPGVPDRFSGSGSGTDFTLKISRVEAEDVGVYYCAQGTSVPFTFGQGTKLEIK",0 fold
10,"H183/L072 VH W33P (antibody, name in Kabat numbering, V domains shown) VH: QVQLVESGGGLVQPGRSLRLSCAASGFTFSNAPMHWVRQAPGKGLEWVAQIKDKGNAYAAYYAPSVKGRFTISRDDSKNSIYLQMNSLKTEDTAVYYCHYVHYASASTVLPAFGVDAWGQGTTVTVSS VL: DIVMTQSPLSLPVTPGEPASISCQASQELVHMNRNTYLHWYQQKPGQAPRLLIYKVSNRFPGVPDRFSGSGSGTDFTLKISRVEAEDVGVYYCAQGTSVPFTFGQGTKLEIK",0 fold
11,"H183/L072 VH W33G (antibody, name in Kabat numbering, V domains shown) VH: QVQLVESGGGLVQPGRSLRLSCAASGFTFSNAGMHWVRQAPGKGLEWVAQIKDKGNAYAAYYAPSVKGRFTISRDDSKNSIYLQMNSLKTEDTAVYYCHYVHYASASTVLPAFGVDAWGQGTTVTVSS VL: DIVMTQSPLSLPVTPGEPASISCQASQELVHMNRNTYLHWYQQKPGQAPRLLIYKVSNRFPGVPDRFSGSGSGTDFTLKISRVEAEDVGVYYCAQGTSVPFTFGQGTKLEIK",0 fold
12,"H183/L072 VH W33I (antibody, name in Kabat numbering, V domains shown) VH: QVQLVESGGGLVQPGRSLRLSCAASGFTFSNAIMHWVRQAPGKGLEWVAQIKDKGNAYAAYYAPSVKGRFTISRDDSKNSIYLQMNSLKTEDTAVYYCHYVHYASASTVLPAFGVDAWGQGTTVTVSS VL: DIVMTQSPLSLPVTPGEPASISCQASQELVHMNRNTYLHWYQQKPGQAPRLLIYKVSNRFPGVPDRFSGSGSGTDFTLKISRVEAEDVGVYYCAQGTSVPFTFGQGTKLEIK",0 fold
13,"H183/L072 VH W33Q (antibody, name in Kabat numbering, V domains shown) VH: QVQLVESGGGLVQPGRSLRLSCAASGFTFSNAQMHWVRQAPGKGLEWVAQIKDKGNAYAAYYAPSVKGRFTISRDDSKNSIYLQMNSLKTEDTAVYYCHYVHYASASTVLPAFGVDAWGQGTTVTVSS VL: DIVMTQSPLSLPVTPGEPASISCQASQELVHMNRNTYLHWYQQKPGQAPRLLIYKVSNRFPGVPDRFSGSGSGTDFTLKISRVEAEDVGVYYCAQGTSVPFTFGQGTKLEIK",0 fold
14,"H183/L072 VH V100cP (antibody, name in Kabat numbering, V domains shown) VH: QVQLVESGGGLVQPGRSLRLSCAASGFTFSNAWMHWVRQAPGKGLEWVAQIKDKGNAYAAYYAPSVKGRFTISRDDSKNSIYLQMNSLKTEDTAVYYCHYVHYASASTPLPAFGVDAWGQGTTVTVSS VL: DIVMTQSPLSLPVTPGEPASISCQASQELVHMNRNTYLHWYQQKPGQAPRLLIYKVSNRFPGVPDRFSGSGSGTDFTLKISRVEAEDVGVYYCAQGTSVPFTFGQGTKLEIK",1 fold
15,"H183/L072 VH W33H (antibody, name in Kabat numbering, V domains shown) VH: QVQLVESGGGLVQPGRSLRLSCAASGFTFSNAHMHWVRQAPGKGLEWVAQIKDKGNAYAAYYAPSVKGRFTISRDDSKNSIYLQMNSLKTEDTAVYYCHYVHYASASTVLPAFGVDAWGQGTTVTVSS VL: DIVMTQSPLSLPVTPGEPASISCQASQELVHMNRNTYLHWYQQKPGQAPRLLIYKVSNRFPGVPDRFSGSGSGTDFTLKISRVEAEDVGVYYCAQGTSVPFTFGQGTKLEIK",0 fold
16,"H183/L072 VH W33A (antibody, name in Kabat numbering, V domains shown) VH: QVQLVESGGGLVQPGRSLRLSCAASGFTFSNAAMHWVRQAPGKGLEWVAQIKDKGNAYAAYYAPSVKGRFTISRDDSKNSIYLQMNSLKTEDTAVYYCHYVHYASASTVLPAFGVDAWGQGTTVTVSS VL: DIVMTQSPLSLPVTPGEPASISCQASQELVHMNRNTYLHWYQQKPGQAPRLLIYKVSNRFPGVPDRFSGSGSGTDFTLKISRVEAEDVGVYYCAQGTSVPFTFGQGTKLEIK",0 fold
17,"H183/L072 VH V100iL (antibody, name in Kabat numbering, V domains shown) VH: QVQLVESGGGLVQPGRSLRLSCAASGFTFSNAWMHWVRQAPGKGLEWVAQIKDKGNAYAAYYAPSVKGRFTISRDDSKNSIYLQMNSLKTEDTAVYYCHYVHYASASTVLPAFGLDAWGQGTTVTVSS VL: DIVMTQSPLSLPVTPGEPASISCQASQELVHMNRNTYLHWYQQKPGQAPRLLIYKVSNRFPGVPDRFSGSGSGTDFTLKISRVEAEDVGVYYCAQGTSVPFTFGQGTKLEIK",1.8 fold
18,"H183/L072 VH V100iA (antibody, name in Kabat numbering, V domains shown) VH: QVQLVESGGGLVQPGRSLRLSCAASGFTFSNAWMHWVRQAPGKGLEWVAQIKDKGNAYAAYYAPSVKGRFTISRDDSKNSIYLQMNSLKTEDTAVYYCHYVHYASASTVLPAFGADAWGQGTTVTVSS VL: DIVMTQSPLSLPVTPGEPASISCQASQELVHMNRNTYLHWYQQKPGQAPRLLIYKVSNRFPGVPDRFSGSGSGTDFTLKISRVEAEDVGVYYCAQGTSVPFTFGQGTKLEIK",4.6 fold
19,"H183/L072 VH V100iI (antibody, name in Kabat numbering, V domains shown) VH: QVQLVESGGGLVQPGRSLRLSCAASGFTFSNAWMHWVRQAPGKGLEWVAQIKDKGNAYAAYYAPSVKGRFTISRDDSKNSIYLQMNSLKTEDTAVYYCHYVHYASASTVLPAFGIDAWGQGTTVTVSS VL: DIVMTQSPLSLPVTPGEPASISCQASQELVHMNRNTYLHWYQQKPGQAPRLLIYKVSNRFPGVPDRFSGSGSGTDFTLKISRVEAEDVGVYYCAQGTSVPFTFGQGTKLEIK",0.8 fold
20,"H183/L072 VH V100iM (antibody, name in Kabat numbering, V domains shown) VH: QVQLVESGGGLVQPGRSLRLSCAASGFTFSNAWMHWVRQAPGKGLEWVAQIKDKGNAYAAYYAPSVKGRFTISRDDSKNSIYLQMNSLKTEDTAVYYCHYVHYASASTVLPAFGMDAWGQGTTVTVSS VL: DIVMTQSPLSLPVTPGEPASISCQASQELVHMNRNTYLHWYQQKPGQAPRLLIYKVSNRFPGVPDRFSGSGSGTDFTLKISRVEAEDVGVYYCAQGTSVPFTFGQGTKLEIK",5.6 fold
